Test results from FireProtDB (doi:10.1021/bi00125a013).

Conditions: Bacillus amyloliquefaciens, 20 °C, Urea, Fluorescence, whole UniProt chain shown
[1] = pH 2.76, diglycine 30 mM, NaCl 0.5 M
[2] = pH 2.82, diglycine 30 mM, NaCl 0.1 M

B1: Ribonuclease wild type, P00648 (protein)
chain: MMKMEGIALKKRLSWISVCLLVLVSAAGMLFSTAAKTETSSHKAHTEAQVINTFDGVADYLQTYHKLPDNYITKSEAQALGWVASKGNLADVAPGKSIGGDIFSNREGKLPGKSGRTWREADINYTSGFRNSDRILYSSDWLIYKTTDHYQTFTKIR
In the case of B1, the denaturant m value (pH 2.5, diglycine 100 mM) is reported as 3.22 kcal/mol/M, the “denaturant midpoint (higher = more stable)” value (from here on “denaturant midpoint”) (pH 2.5, diglycine 100 mM) is reported as 0.52 M and the unfolding free energy (pH 2.5, diglycine 100 mM) is reported as 1.66 kcal/mol. For the same protein, the denaturant m value [1] was 2.62 kcal/mol/M, the “denaturant midpoint” value [1] was 1.61 M and the unfolding free energy [1] was 4.2 kcal/mol. The denaturant m value [2] was 2.97 kcal/mol/M, the “denaturant midpoint” value [2] was 1.21 M and the unfolding free energy [2] was 3.58 kcal/mol. For the same protein, the denaturant m value (pH 2.87, diglycine 30 mM) was 3.19 kcal/mol/M, the “denaturant midpoint” value (pH 2.87, diglycine 30 mM) was 1.14 M and the unfolding free energy (pH 2.87, diglycine 30 mM) was 3.63 kcal/mol. The denaturant m value (pH 2.98, diglycine 100 mM) was 3.28 kcal/mol/M, the “denaturant midpoint” value (pH 2.98, diglycine 100 mM) was 1.39 M and the unfolding free energy (pH 2.98, diglycine 100 mM) was 4.55 kcal/mol.
